Assay results published in patent US20150376265A1 (Genentech, published 2015).
Residue numbers refer to the chain shown, from its start.

Columns and labels:
[1] = target: T1, Complex I with gH D446N, on virions of HB1 - mutant virus 4 (HCMV, UniProt P12824 24-743; P16832 31-278; P16837 28-171; F5HCP3 26-214; F5HET4 19-129); test: cell-based or functional assay
T1 chain 1: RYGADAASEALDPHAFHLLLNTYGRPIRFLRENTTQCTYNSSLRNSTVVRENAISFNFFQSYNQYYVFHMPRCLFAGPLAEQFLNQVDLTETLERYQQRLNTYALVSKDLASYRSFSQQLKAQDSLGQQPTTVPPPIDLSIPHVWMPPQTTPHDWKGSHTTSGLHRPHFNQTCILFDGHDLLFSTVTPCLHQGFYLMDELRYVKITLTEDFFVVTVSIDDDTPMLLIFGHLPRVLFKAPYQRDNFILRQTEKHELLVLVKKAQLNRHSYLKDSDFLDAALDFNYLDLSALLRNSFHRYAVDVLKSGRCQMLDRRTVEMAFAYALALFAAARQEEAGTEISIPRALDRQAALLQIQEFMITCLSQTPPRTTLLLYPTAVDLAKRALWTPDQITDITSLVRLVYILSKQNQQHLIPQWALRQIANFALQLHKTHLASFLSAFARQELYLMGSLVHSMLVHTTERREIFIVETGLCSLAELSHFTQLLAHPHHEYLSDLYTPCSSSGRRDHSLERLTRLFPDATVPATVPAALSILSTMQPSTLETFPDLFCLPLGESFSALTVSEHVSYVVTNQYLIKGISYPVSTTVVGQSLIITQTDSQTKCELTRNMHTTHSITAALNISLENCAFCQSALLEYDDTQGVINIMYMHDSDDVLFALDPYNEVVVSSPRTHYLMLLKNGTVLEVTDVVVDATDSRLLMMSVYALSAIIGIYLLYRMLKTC
T1 chain 2: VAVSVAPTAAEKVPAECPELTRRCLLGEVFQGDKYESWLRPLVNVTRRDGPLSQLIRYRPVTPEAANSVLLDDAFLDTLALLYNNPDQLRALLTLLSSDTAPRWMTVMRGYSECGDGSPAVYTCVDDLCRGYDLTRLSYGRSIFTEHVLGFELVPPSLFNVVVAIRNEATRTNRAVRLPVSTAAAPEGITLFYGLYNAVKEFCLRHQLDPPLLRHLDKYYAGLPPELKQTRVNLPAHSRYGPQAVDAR
T1 chain 3: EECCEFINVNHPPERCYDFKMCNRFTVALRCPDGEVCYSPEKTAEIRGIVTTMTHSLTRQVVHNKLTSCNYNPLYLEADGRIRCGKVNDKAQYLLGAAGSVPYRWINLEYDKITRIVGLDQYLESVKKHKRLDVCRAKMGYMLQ
T1 chain 4: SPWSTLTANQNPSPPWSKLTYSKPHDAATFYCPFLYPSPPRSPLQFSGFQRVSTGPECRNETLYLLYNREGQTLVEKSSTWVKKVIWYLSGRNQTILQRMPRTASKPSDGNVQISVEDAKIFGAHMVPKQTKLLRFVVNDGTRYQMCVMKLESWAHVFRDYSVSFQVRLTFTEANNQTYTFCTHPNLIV
T1 chain 5: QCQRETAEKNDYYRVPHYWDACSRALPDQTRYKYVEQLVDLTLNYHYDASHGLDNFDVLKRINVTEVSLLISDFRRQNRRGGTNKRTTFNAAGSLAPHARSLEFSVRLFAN

[2] = target: T2, Complex I with gH W168R, on virions of HB1 - mutant virus 6 (HCMV, UniProt P12824 24-743; P16832 31-278; P16837 28-171; F5HCP3 26-214; F5HET4 19-129); test: cell-based or functional assay
T2 chain 1: T1 chain 1 with W145R, N423D
T2 chain 2: T1 chain 2
T2 chain 3: T1 chain 3
T2 chain 4: T1 chain 4
T2 chain 5: T1 chain 5

B1: hu8G8 (lambda4 8G8 graft and hu8G8.VH1) (antibody, V domains shown)
VH: EVQLVQSGAEVKKPGASVKVSCKASGYTFTNYGMNWVRQAPGQGLEWIGWINTYTGEPTYADDFKGRVTITRDTSTSTAYLELSSLRSEDTAVYYCARSWYYVSNYWYFDVWGQGTLVTVSS
VL: SVLTQSPSASASLGASVKLTCTLSSQHSTYTIEWYQQQPGKGPRYLMKLKKDGSHSTGDGIPDRFSGSSSGADRYLTISNLQSEDEADYYCGVGDTIKEQFVYVFGGGTKLTVLG
notes: also called hu8G8 with VH1; Humanized 8G8 with VH1
- hu8G8 EC50, neutralisation of HB1 - mutant virus 4, Data Set 2 [1]: 0.1 ng/mL
- hu8G8 EC50, neutralisation of HB1 - mutant virus 6, Data Set 2 [2]: 1 ng/mL
